How the values were obtained:
[1] = target: PP1CA-HRAS (Homo sapiens, UniProt P62136); assay: SPR
[2] = target: PP1CA-KRAS (Homo sapiens, UniProt P62136); assay: SPR
[3] = target: PP1CA-NRAS (Homo sapiens, UniProt P62136); assay: SPR
[4] = target: PP1CA-MRAS (Homo sapiens, UniProt P62136); assay: ITC

B1: SHOC2 (protein)
chain: MSSSLGKEKDSKEKDPKVPSAKEREKEAKASGGFGKESKEKEPKTKGKDAKDGKKDSSAAQPGVAFSVDNTIKRPNPAPGTRKKSSNAEVIKELNKCREENSMRLDLSKRSIHILPSSIKELTQLTELYLYSNKLQSLPAEVGCLVNLMTLALSENSLTSLPDSLDNLKKLRMLDLRHNKLREIPSVVYRLDSLTTLYLRFNRITTVEKDIKNLSKLSMLSIRENKIKQLPAEIGELCNLITLDVAHNQLEHLPKEIGNCTQITNLDLQHNELLDLPDTIGNLSSLSRLGLRYNRLSAIPRSLAKCSALEELNLENNNISTLPESLLSSLVKLNSLTLARNCFQLYPVGGPSQFSTIYSLNMEHNRINKIPFGIFSRAKVLSKLNMKDNQLTSLPLDFGTWTSMVELNLATNQLTKIPEDVSGLVSLEVLILSNNLLKKLPHGLGNLRKLRELDLEENKLESLPNEIAYLKDLQKLVLTNNQLTTLPRGIGHLTNLTHLGLGENLLTHLPEEIGTLENLEELYLNDNPNLHSLPFELALCSKLSIMSIENCPLSHLPPQIVAGGPSFIIQFLKMQGPYRAMV
modifications: GMPPNP
Kd [1]: 2000 nM
Kd [2]: 700 nM
Kd [3]: 4000 nM
Kd [4]: ~350 nM
